What was measured:
c-Abl (mouse) = experiment: phosphorylation enrichment, bacterial display (enrichment ratio); higher = better substrate or ligand; peptides without Tyr show the background
Hck = Hck (UniProt P08631); experiment: as above
MERTK = MERTK (UniProt Q12866); experiment: as above
FGFR1 = FGFR1 (UniProt P11362); experiment: as above
c-Src = experiment: as above
Fyn = Fyn (UniProt P06241); experiment: as above
EPHB1 = EPHB1 (UniProt P54762); experiment: as above
FGFR3 = FGFR3 (UniProt P22607); experiment: as above
Jak2 = Jak2 (UniProt O60674); experiment: as above
AncSZ = experiment: as above
Fes = Fes (UniProt P07332); experiment: as above
Fer (mouse) = experiment: as above
EPHB2 = EPHB2 (UniProt P29323); experiment: as above
c-Src SH2 = experiment: SH2 binding enrichment of the phosphorylated peptide, bacterial display (enrichment ratio); higher = better substrate or ligand; peptides without Tyr show the background
Grb2 SH2 = Grb2 SH2 (UniProt P62993); experiment: as above
SHP2-C SH2 = experiment: as above
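For SH2 binding enrichment of the phosphorylated peptide, bacterial display in this document: peptide library displayed on the E. coli surface as eCPX fusions, selected cells deep-sequenced, score is each peptide's frequency after selection divided by its frequency in the input.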
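For phosphorylation enrichment, bacterial display in this document: 11-residue human phosphosite peptides and single-mutation variants displayed on the E. coli surface, counted by deep sequencing, each peptide's frequency after selection divided by its frequency in the unselected input library; frequency after pTyr selection over input frequency; kinase dosed for 20-30% of maximal phosphorylation in three min.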

Hck, sequence (P08631 whole entry, looked up): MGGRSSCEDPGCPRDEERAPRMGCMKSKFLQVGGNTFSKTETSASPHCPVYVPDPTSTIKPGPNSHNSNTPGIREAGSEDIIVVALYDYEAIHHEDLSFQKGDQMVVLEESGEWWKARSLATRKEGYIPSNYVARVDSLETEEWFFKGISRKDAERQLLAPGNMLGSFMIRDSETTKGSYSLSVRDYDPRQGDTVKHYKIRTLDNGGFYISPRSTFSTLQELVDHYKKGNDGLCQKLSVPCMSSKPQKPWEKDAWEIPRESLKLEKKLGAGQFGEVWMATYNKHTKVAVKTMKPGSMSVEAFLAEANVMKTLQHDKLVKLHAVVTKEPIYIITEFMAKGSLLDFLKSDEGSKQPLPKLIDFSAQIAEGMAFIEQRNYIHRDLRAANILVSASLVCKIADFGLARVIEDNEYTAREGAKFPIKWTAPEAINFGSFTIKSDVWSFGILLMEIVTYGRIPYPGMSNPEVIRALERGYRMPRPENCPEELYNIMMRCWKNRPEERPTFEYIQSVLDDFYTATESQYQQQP
Fyn, sequence (P06241 whole entry, looked up): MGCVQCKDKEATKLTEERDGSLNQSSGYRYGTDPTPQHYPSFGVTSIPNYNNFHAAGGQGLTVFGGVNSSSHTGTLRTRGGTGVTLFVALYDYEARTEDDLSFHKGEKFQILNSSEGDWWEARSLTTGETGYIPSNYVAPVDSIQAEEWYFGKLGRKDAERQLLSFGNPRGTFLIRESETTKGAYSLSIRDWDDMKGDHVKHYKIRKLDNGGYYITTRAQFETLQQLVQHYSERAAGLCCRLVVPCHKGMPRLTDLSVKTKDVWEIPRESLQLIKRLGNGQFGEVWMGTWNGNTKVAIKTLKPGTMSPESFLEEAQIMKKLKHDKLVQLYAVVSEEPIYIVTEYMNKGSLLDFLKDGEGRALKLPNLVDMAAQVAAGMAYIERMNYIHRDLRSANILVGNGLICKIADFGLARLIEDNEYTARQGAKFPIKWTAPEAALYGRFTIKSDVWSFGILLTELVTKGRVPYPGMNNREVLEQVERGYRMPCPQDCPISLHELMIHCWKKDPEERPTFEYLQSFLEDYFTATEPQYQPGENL
FGFR1, sequence (P11362 whole entry, looked up): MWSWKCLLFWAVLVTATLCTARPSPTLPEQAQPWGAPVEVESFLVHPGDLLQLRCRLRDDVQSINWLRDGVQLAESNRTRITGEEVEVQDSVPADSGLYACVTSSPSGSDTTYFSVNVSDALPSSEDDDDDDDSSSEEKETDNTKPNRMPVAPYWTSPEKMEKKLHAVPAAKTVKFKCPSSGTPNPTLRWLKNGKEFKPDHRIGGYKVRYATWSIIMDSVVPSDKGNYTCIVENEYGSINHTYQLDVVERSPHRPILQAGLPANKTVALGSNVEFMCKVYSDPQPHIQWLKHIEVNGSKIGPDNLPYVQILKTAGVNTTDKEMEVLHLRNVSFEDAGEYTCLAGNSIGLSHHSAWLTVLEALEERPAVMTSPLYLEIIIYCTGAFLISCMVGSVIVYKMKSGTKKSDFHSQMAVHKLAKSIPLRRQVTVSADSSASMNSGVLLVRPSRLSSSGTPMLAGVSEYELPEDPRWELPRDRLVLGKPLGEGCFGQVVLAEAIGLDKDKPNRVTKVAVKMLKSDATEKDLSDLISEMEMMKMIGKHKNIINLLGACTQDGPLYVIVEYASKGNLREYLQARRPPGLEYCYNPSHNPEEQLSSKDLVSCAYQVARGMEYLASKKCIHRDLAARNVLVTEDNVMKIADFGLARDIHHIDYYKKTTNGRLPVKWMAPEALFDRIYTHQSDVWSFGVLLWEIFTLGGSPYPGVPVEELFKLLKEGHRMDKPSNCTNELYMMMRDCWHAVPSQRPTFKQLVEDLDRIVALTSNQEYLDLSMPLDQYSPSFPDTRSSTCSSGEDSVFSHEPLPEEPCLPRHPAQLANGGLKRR
Fes, sequence (P07332 whole entry, looked up): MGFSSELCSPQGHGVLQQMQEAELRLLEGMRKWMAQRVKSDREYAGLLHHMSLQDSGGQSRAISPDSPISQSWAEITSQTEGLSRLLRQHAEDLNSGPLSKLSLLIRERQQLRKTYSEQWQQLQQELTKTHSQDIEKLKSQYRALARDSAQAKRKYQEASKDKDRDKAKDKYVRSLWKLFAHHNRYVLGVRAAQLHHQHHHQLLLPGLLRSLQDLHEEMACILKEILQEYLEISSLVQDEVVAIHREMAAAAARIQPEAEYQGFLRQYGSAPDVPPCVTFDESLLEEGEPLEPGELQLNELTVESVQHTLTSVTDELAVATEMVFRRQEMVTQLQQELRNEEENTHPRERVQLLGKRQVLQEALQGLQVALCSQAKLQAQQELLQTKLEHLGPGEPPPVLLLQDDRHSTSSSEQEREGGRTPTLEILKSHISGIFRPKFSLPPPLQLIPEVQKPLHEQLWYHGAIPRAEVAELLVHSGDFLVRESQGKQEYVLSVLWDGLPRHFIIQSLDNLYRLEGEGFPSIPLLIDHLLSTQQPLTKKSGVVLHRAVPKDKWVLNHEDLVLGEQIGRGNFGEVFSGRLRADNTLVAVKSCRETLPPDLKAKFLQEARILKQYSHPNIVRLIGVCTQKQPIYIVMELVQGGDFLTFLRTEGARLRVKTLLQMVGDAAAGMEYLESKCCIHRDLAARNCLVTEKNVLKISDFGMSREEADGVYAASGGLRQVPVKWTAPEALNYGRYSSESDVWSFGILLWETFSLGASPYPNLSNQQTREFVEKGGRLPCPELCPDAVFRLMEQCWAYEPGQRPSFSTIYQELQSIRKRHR
FGFR3, sequence (P22607 whole entry, looked up): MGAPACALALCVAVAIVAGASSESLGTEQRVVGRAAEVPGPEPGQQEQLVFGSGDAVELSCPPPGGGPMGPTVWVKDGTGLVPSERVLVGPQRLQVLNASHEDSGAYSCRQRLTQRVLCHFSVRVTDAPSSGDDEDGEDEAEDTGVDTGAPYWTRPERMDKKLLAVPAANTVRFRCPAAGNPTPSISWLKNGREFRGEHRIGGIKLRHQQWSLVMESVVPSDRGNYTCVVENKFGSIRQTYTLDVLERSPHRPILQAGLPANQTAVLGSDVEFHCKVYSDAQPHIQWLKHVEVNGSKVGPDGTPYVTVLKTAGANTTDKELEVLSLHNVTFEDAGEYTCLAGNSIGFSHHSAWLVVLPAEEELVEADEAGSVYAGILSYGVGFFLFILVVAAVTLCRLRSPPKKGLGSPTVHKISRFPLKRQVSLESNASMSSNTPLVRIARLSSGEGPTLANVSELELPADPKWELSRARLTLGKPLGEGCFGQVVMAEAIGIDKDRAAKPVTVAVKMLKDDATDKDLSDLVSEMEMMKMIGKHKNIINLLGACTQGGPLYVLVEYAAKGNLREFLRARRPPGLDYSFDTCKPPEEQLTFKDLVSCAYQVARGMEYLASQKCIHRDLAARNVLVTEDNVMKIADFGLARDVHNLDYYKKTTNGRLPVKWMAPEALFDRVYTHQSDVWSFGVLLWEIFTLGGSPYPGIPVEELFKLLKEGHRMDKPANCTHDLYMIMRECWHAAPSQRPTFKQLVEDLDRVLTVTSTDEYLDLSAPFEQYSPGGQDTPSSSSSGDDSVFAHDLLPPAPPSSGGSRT
MERTK, sequence (Q12866 whole entry, looked up): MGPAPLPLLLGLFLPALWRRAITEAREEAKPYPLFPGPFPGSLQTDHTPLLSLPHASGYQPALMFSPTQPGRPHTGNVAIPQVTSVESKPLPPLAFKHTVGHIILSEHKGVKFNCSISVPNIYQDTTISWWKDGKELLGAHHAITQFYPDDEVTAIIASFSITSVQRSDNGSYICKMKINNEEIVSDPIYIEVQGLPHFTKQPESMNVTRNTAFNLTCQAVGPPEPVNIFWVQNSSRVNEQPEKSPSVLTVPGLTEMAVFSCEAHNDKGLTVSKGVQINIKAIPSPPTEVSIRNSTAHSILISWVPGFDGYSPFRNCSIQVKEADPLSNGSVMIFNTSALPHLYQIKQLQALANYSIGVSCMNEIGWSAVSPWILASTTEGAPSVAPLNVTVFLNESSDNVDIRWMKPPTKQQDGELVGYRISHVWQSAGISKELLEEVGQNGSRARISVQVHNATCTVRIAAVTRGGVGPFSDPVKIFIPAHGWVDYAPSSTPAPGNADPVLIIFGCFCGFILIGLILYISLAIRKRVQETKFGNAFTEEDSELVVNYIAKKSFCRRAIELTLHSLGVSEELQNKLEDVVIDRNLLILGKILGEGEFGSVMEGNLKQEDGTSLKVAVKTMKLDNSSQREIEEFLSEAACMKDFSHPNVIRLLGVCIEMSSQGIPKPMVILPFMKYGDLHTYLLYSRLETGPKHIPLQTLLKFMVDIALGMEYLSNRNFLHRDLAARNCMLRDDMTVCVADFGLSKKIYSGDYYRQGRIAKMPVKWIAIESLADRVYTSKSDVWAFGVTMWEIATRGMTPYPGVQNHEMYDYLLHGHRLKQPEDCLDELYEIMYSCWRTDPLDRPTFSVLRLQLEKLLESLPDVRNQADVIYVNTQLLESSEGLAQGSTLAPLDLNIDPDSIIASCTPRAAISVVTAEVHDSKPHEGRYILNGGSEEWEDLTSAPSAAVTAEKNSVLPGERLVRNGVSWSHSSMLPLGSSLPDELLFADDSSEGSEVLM

SH2 binding enrichment (c-Src SH2)	SH2 binding enrichment (Grb2 SH2)	SH2 binding enrichment (SHP2-C SH2)	Sequence	phosphorylation enrichment (c-Abl (mouse))	phosphorylation enrichment (Hck)	phosphorylation enrichment (MERTK)	phosphorylation enrichment (FGFR1)	phosphorylation enrichment (c-Src)	phosphorylation enrichment (Fyn)	phosphorylation enrichment (EPHB1)	phosphorylation enrichment (FGFR3)	phosphorylation enrichment (Jak2)	phosphorylation enrichment (AncSZ)	phosphorylation enrichment (Fes)	phosphorylation enrichment (Fer (mouse))	phosphorylation enrichment (EPHB2)
0.572	0.781	0.66	NTFEKYLEEEF [TF_Y669_G671E_YF]	0.692	0.497	0.426	0.407	0.495	0.389	0.6	0.754	1.17	1.25	1.26	0.551	0.61
0.444	0.803	0.476	AVDVTYDGHPV [FLNB_Y1020]	0.705	2.78	0.429	0.497	2.55	2.3	1.09	0.63	0.724	1.11	0.982	0.925	3.74
0.556	1.08	0.697	RAWPPYTVAAD [ANKZF1_Y572_R569W]	0.737	0.597	0.475	0.573	0.618	0.571	0.678	0.589	0.683	0.884	1.11	0.631	0.517
0.413	0.821	0.762	HNGDRYFKGIV [DCX_Y64_R59H]	0.585	0.429	0.692	0.286	0.585	0.515	0.449	0.542	0.529	0.707	0.716	0.366	0.344
0.391	0.825	0.605	RCQDLYSARDL [SART1_Y249_R245C]	1.41	9.83	4.7	0.876	6.42	4.61	1.63	1.22	1.97	1.95	1.76	2.59	1.06
0.98	1.04	1.12	AIDVGYRHIDC [AKR1B1_Y40]	0.629	0.457	0.366	0.476	0.411	0.466	0.419	0.622	0.635	0.637	0.844	0.44	0.531
0.401	0.623	0.614	AYGGGYGGVLT [KRT19_Y65]	0.485	0.605	0.372	0.456	0.573	0.442	0.461	0.645	0.485	0.583	0.574	0.477	0.458
0.59	0.802	0.667	NFPGGYSGSVK [MCPH1_Y606_L602F]	0.529	0.406	0.365	0.486	0.451	0.44	0.357	0.47	0.539	0.354	0.547	0.368	0.379
0.714	0.796	0.919	ADLVQYYMEHH [PTPN11_Y80_E76D]	0.751	0.967	0.642	1.04	0.84	0.668	1.16	1.18	0.914	1.18	1.12	0.464	0.806
0.464	1.08	1.1	AGAIIYTSRFQ [PFAS_Y538]	0.72	0.76	0.568	0.398	0.929	0.58	0.486	0.504	0.686	0.748	0.839	0.506	0.674
0.657	0.862	0.657	FPPISYLHAIS [MVD_Y276_N278H]	0.829	0.565	0.544	0.602	0.608	0.602	0.434	0.612	0.793	0.984	1	0.545	0.579
0.613	0.787	0.667	KVASVYEALGF [NT5C_Y65_P68L]	0.697	8.84	7.59	0.607	6.25	10.3	8.22	0.574	0.595	0.88	0.989	4.62	4.25
0.825	0.886	0.705	GVCKNYAEAKD [ALB_Y343_D338G]	0.6	0.498	0.385	0.551	0.392	0.371	0.469	0.585	0.556	0.749	0.729	0.359	0.511
0.53	1.11	0.633	PLQKTYNFNVL [SLC4A1_Y553_YF]	0.627	0.477	0.426	0.554	0.43	0.602	0.709	0.593	1.05	0.686	0.903	0.383	0.645
2.03	0.853	0.582	DFPGNYSGYDD [POLR1C_Y33]	0.976	0.573	0.62	0.671	0.612	0.675	1.31	0.913	1.17	1.3	1.24	0.65	1.3
1.36	1.91	1.48	ALVFLYFCIIF [SIGLEC12_Y494]	0.957	0.964	0.636	0.58	0.741	0.552	0.397	0.803	1.01	1.04	1.16	0.6	0.483

— the supplement of paper PMC10065799, “High-throughput profiling of sequence recognition by tyrosine kinases and SH2 domains using bacterial peptide display” (eLife, 2023)
